Reference: PMC2647316 (Nucleic Acids Research, 2008)
Where a chain is given by its changes, count along the chain named.

What was measured:
Assay in all cases: SPR
GkDnaC R117A = molecular target: T1, GkDnaC R117A (Geobacillus kaustophilus HTA426, UniProt Q5KU75 1-454, R117A)
T1 sequence: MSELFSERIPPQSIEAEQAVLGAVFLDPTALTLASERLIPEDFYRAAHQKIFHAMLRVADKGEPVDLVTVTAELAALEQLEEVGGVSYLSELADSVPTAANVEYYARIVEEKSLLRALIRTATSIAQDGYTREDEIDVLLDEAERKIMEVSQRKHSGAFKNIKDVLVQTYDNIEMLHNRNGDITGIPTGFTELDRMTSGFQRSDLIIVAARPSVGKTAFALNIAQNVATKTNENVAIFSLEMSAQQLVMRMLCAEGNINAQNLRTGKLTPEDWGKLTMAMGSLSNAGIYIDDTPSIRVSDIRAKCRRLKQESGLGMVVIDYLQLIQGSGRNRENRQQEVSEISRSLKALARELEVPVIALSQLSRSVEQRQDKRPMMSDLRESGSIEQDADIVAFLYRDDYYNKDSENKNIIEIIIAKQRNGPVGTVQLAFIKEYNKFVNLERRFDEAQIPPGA

GkDnaC R145A = molecular target: T2, GkDnaC R145A (Geobacillus kaustophilus HTA426, UniProt Q5KU75 1-454, R145A)
T2 sequence: T1 sequence with A117R, R145A

GkDnaC R332A = molecular target: T3, GkDnaC R332A (Geobacillus kaustophilus HTA426, UniProt Q5KU75 1-454, R332A)
T3 sequence: T1 sequence with A117R, R332A

[1] = molecular target: T4, GkDnaC R145K146A double mutant (Geobacillus kaustophilus HTA426, UniProt Q5KU75 1-454, R145A;K146A)
T4 sequence: T1 sequence with A117R, R145A, K146A

TTTTTTTTTTTTTTTTTTTTTTTTTTTTTT (ssDNA) [5'Bio-(dT)30]
Kd (GkDnaC R117A): 1.47 µM
Kd (GkDnaC R145A): 1.39 µM
Kd (GkDnaC R332A): 6.64 µM
Kd [1]: 27 µM
